Consider one molecule from publication doi:10.1101/2020.09.09.290171 (bioRxiv, 2020).

The experiment deals with T1, recombinant NRPD1 fused at its C-terminus to a FLAG epitope tag (Arabidopsis thaliana, UniProt Q9LQ02 1-1453).
T1 sequence: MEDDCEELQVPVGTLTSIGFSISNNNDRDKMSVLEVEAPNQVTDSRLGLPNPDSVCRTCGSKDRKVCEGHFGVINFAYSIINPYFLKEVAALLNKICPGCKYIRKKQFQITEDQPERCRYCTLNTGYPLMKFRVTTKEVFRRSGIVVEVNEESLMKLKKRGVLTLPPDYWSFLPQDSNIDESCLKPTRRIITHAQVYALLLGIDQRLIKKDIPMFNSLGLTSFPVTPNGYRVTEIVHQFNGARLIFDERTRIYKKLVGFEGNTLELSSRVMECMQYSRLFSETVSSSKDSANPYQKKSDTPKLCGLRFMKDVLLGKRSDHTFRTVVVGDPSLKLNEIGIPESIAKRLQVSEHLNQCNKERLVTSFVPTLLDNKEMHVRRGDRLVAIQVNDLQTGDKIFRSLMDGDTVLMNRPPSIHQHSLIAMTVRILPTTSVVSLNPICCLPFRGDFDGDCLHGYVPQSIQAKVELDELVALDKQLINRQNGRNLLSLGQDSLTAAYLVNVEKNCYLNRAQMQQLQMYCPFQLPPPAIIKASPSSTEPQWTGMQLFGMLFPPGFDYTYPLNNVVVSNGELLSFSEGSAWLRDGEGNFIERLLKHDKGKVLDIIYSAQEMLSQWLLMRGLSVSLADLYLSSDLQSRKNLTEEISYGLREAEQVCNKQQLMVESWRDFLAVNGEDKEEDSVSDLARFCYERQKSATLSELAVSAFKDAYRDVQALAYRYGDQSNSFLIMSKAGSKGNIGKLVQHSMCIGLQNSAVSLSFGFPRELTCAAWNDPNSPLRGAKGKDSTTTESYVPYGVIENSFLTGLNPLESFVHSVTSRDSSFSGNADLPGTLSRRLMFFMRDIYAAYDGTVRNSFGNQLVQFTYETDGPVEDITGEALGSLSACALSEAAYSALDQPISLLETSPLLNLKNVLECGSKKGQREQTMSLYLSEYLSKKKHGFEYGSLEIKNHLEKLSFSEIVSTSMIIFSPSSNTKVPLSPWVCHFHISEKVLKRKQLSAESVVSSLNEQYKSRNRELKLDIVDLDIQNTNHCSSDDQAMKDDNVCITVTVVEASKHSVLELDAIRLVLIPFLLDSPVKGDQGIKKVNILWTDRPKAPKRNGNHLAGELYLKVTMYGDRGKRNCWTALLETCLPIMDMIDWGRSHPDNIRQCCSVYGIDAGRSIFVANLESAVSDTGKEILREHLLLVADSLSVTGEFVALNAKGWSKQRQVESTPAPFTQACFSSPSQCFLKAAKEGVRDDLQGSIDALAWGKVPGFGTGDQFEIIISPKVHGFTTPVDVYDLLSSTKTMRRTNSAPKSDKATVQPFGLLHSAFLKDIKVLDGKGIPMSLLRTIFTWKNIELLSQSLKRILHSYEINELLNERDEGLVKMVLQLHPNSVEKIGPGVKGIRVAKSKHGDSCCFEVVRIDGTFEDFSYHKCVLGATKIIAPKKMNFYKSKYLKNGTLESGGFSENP
The experiment in a line: co-IP.

B1: recombinant RDR2 (RNA-DEPENDENT RNA POLYMERASE 2), wild type, with N-terminal V5 epitope and 6xHis tags (enzyme)
chain: MVSETTTNRSTVKISNVPQTIVADELLRFLELHLGEDTVFALEIPTTRDNWKPRDFARVQFTTLEVKSRAQLLSSQSKLLFKTHNLRLSEAYDDIIPRPVDPRKRLDDIVLTVGFPESDEKRFCALEKWDGVRCWILTEKRRVEFWVWESGDCYKIEVRFEDIIETLSCCVNGDASEIDAFLLKLKYGPKVFKRVTVHIATKFKSDRYRFCKEDFDFMWIRTTDFSGSKSIGTSTCFCLEVHNGSTMLDIFSGLPYYREDTLSLTYVDGKTFASAAQIVPLLNAAILGLEFPYEILFQLNALVHAQKISLFAASDMELIKILRGMSLETALVILKKLHQQSSICYDPVFFVKTQMQSVVKKMKHSPASAYKRLTEQNIMSCQRAYVTPSKIYLLGPELETANYVVKNFAEHVSDFMRVTFVEEDWSKLPANALSVNSKEGYFVKPSRTNIYNRVLSILGEGITVGPKRFEFLAFSASQLRGNSVWMFASNEKVKAEDIREWMGCFRKIRSISKCAARMGQLFSASRQTLIVRAQDVEQIPDIEVTTDGADYCFSDGIGKISLAFAKQVAQKCGLSHVPSAFQIRYGGYKGVIAVDRSSFRKLSLRDSMLKFDSNNRMLNVTRWTESMPCFLNREIICLLSTLGIEDAMFEAMQAVHLSMLGNMLEDRDAALNVLQKLSGENSKNLLVKMLLQGYAPSSEPYLSMMLRVHHESQLSELKSRCRILVPKGRILIGCMDEMGILEYGQVYVRVTLTKAELKSRDQSYFRKIDEETSVVIGKVVVTKNPCLHPGDIRVLDAIYEVHFEEKGYLDCIIFPQKGERPHPNECSGGDLDGDQFFVSWDEKIIPSEMDPPMDYAGSRPRLMDHDVTLEEIHKFFVDYMISDTLGVISTAHLVHADRDPEKARSQKCLELANLHSRAVDFAKTGAPAEMPYALKPREFPDFLERFEKPTYISESVFGKLYRAVKSSLAQRKPEAESEDTVAYDVTLEEAGFESFIETAKAHRDMYGEKLTSLMIYYGAANEEEILTGILKTKEMYLARDNRRYGDMKDRITLSVKDLHKEAMGWFEKSCEDEQQKKKLASAWYYVTYNPNHRDEKLTFLSFPWIVGDVLLDIKAENAQRQSVEEKTSGLVSI
Regarding B1, the binding result is reported as “binds”.
